Experimental data as given in PMC3351185 (Nucleic Acids Research, 2011).

Biological target: T1, ϕ29 DNA polymerase (wild-type) (bacteriophage ϕ29, UniProt P03680 1-575)
T1 sequence: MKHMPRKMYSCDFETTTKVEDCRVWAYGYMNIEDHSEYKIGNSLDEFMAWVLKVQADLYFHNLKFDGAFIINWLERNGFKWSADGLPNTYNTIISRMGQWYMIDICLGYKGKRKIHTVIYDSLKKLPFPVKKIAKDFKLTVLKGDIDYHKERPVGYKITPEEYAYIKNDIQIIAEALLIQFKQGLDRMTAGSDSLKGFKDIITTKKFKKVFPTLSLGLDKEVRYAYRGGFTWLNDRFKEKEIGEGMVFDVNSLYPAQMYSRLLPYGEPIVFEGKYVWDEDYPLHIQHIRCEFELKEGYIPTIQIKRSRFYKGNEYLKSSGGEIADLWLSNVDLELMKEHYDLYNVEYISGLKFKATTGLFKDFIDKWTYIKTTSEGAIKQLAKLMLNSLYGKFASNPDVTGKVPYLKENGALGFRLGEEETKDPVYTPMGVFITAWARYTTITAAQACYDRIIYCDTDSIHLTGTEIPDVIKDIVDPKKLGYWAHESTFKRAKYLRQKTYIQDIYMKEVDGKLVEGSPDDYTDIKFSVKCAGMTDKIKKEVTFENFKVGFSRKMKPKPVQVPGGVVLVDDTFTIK
Assay: cell-based or functional assay

B1: ϕ29 terminal protein mutant R158A (natural protein, bacteriophage ϕ29, UniProt P03681 1-266, looked up)
chain: MARSPRIRIKDNDKAEYARLVKNTKAKIARTKKKYGVDLTAEIDIPDLDSFETRAQFNKWKEQASSFTNRANMRYQFEKNAYGVVASKAKIAEIERNTKEVQRLVDEKIKAMKDKEYYAGGKPQGTIEQRIAMTSPAHVTGINRPHDFDFSKVRSYSALRTLEESMEMRTDPQYYEKKMIQLQLNFIKSVEGSFNSFDAADELIEELKKIPPDDFYELFLRISEISFEEFDSEGNTVENVEGNVYKILSYLEQYRRGDFDLSLKGF
**Q.** With B1 as the binder, how does the “TP-DNA amplification (%), activity with respect to the wild-type TP” value read?
**A.** 1 % of wild-type TP

**Q.** What about the “TP-DNA replication, activity with respect to the wild-type TP” value of the same binder?
**A.** 17 % of wild-type TP
